# According to patent US7320863B2, “Thyroid sodium/iodide symporter and nucleic acid encoding same” (Albert Einstein College of Medicine of Yeshiva University, priority 1996, dated 2008):
# Substrate: I
# Test: cells, lysate or membranes
# Conditions: other: initial velocity rates at 2 min, iodide 1.25 to 250 μM, oocytes 60 h after injection; 37.0 °C
protein,measurement,value
rat sodium/iodide symporter (Rattus norvegicus) (protein) MEGAEAGARATFGAWDYGVFATMLLVSTGIGLWVGLARGGQRSADDFFTGGRQLAAVPVGLSLAASFMSAVQVLGVPAEAARYGLKFLWMCAGQLLNSLLTAFLFLPIFYRLGLTSTYQYLELRFSRAVRLCGTLQYLVATMLYTGIVIYAPALILNQVTGLDIWASLLSTGIICTLYTTVGGMKAVVWTDVFQVVVMLVGFWVILARGVILLGGPRNVLSLAQNHSRINLMDFDPDPRSRYTFWTFIVGGTLVWLSMYGVNQAQVQRYVACHTEGKAKLALLVNQLGLFLIVASAACCGIVMFVYYKDCDPLLTGRISAPDQYMPLLVLDIFEDLPGVPGLFLACAYSGTLSTASTSINAMAAVTVEDLIKPRMPGLAPRKLVFISKGLSFIYGSACLTVAALSSLLGGGVLQGSFTVMGVISGPLLGAFTLGMLLPACNTPGVLSGLAAGLAVSLWVAVGATLYPPGEQTMGVLPTSAAGCTNDSVLLGPPGATNASNGIPSSGMDTGRPALADTFYAISYLYYGALGTLTTMLCGALISYLTGPTKRSSLGPGLLWWDLARQTASVAPKEDTATLEESLVKGPEDIPAVTKKPPGLKPGAETHPLYLGHDVETNL,Km,36 µM
